Laboratory results reported in patent publication US20210253725A1 (BIONTECH, published 2021).
Positions count from the first letter of the chain named. In names and notes the source's numbering stands.

B1: P018.S.10.A.C03 (antibody, V domains shown)
VH: QSVEESGGRLVTPGTPLTLTCTVSGFSLSSYYMIWVRQAPGKGLEWIGIINTSGGAYYATWANGRFTISRTSTTVDLKITSPTTEDTATYFCARYLDNGFYCPDLWGQGTLVIVSS
VL: DIVMTQTPSSVSEAVGGTVTIKCQASEDIYTLLAWYQQKPGQPPKLLIYKASILASGVSSRFKGGGSGADFTLTISDLESADAATYYCQSTYYGAAYIGAFGGGTEVVVK
notes: V regions on human Ig constant parts; also called AB27_172
B2: P018.S.02.A.G04 (antibody, V domains shown)
VH: QSLEESGGRLVTPGGSLTLTCTVSGIDLSSYAMGWVRQAPGKGLEYIGIIYTSNRTHYATWAKGRFTISKSSTTVDLKATSLTTEDTATYFCGRYGRGSGGYYYGMDLWGPGTLVTVSS
VL: DIVMTQTPASVEAAVGGTVTIKCQASQSGDNYCSWYQQKPGQPPKLLIYQASKLTSGVPSRFRGSRSGTEYTLTISDLESADAATYYCQNYCAGSGVCLGIAFGGGTEVVVK
notes: V regions on human Ig constant parts; also called AB27_39
B3: P018.S.07.A.G04 (antibody, V domains shown)
VH: B2 VH with G15T, S16P, G48A, S53T
VL: B2 VL
notes: V regions on human Ig constant parts; also called AB27_130
B4: P018.S.01.A.E05 (antibody, V domains shown)
VH: QEQLVESGGGLVQPEGSLTLTCTASGFSFSSRYYMCWVRQAPGKGLEWIACIAPDVSGSAYYATWAKGRITISETSSTTVTLRMTSLTAADTAIYFCARSVPGSLFYFQLWGPGTVVTVSS
VL: AAVLTQTPPSVSAAVGGTVTIKCQSSQSVYNKNEFSWYQQKPGQPPKLLIYDASTLASGVPSRFKGSGSGTQFTLTISDLESDDAATYYCQGSYYSSGSYTAFGGGTEVVVK
notes: V regions on human Ig constant parts; also called AB27_17
B5: P018.S.06.A.C02 (antibody, V domains shown)
VH: QSVEESGGRLVTPGTPLTLTCIVSGIDLSSNAMSWVRQAPGKGLEWIGIIGFAGITYYANWAKGRFTISKTSTTVDLKITSPTTEDTATYFCARAYGDSDGLYNLWGQGTLVTVSS
VL: AQVLTQTASSVSAAVGGTVTISCQSSESVYNNNWLGWFQQKPGQPPKLLIYLASTLASGVPSRFKGSGSGTQFTLTISDLESDDAATYYCQGGYSGNIFAFGGGTEVVVN
notes: V regions on human Ig constant parts; also called AB27_100
B6: P018.S.03.A.G03 (antibody, V domains shown)
VH: QEHLEESGGGLVQPEGSLTLTCKASGFDFSSNYYMSWVRQAPGTGLEWIACIDSGSSGSTWYASWVKGRFTISKTSSTTVTLQMTSLTDADTAAYFCVRDDVGSSYEYYFSLWGPGTLVTVSS
VL: DVVMTQTPASVSEPVGGTVTIKCQASQSIGSFLGWYQQKPGQPPKLLIYQASKLASGVPSRFKGSGSGTEYTLTISDLESADAAAYYCQTYFGSDSYVFGGGTEVVVK
notes: V regions on human Ig constant parts; also called AB27_57
B7: P018.S.02.A.A01 (antibody, V domains shown)
VH: QSVEESGGRLVTPGTPLTLTCTVSGIDLSRYAMGWVRQAPGKGLEYIGIISSSGSTYYASWIKGRFTISKTSTTVDLKITSPTTEDTATYFCARSPYASTSASAFNLWGPGTLVTVSS
VL: AFELTQTPSSVEAAVGGTVTIKCQASQSISSWLSWYQQKPGQPPKLLIYEASKLASGVPSRFKGSGSGTQFTLTISDLESADAATYYCQSYSSTTTNTFGGGTEVVVK
notes: V regions on human Ig constant parts; also called AB27_27
B8: P018.S.03.A.D03 (antibody, V domains shown)
VH: QEQLVESGGGLVQPEGSLTLTCTASGFSFNNNYVMSWVRQAPGKGLEWIGTIYVVSGSTYYASWVNGRFSISKTSSTTVTLQMTSLTDADTATYFCARDQLYNSGYDFDLWGPGTLVIVSS
VL: AQVLTQTASPVSAAVGSTVTISCQSSQSVYNNNELSWYQQKPGQPPKLLIYQASKLASGVSSRFSGSESGTQFTLTISGVQSDDAATYYCQGTYYRSGLDNGFGGGTEVVVK
notes: V regions on human Ig constant parts; also called AB27_48
B9: P018.S.01.A.C05 (antibody, V domains shown)
VH: QSLEESGGGLVQPEGSLTLTCTASGFSFSSRYYMCWVRQAPGKGLELIACIDTSSGSTWYASWAKGRFTVSKTSSTTVTLQMTSLTAADTATYFCARDLYHENSDGDWWGPGTLVTVSS
VL: AFELTQTPSSVEAAVGGTVTIKCQASESINNYLAWYQQKPGQPPKLLIYKASTLASGVSSRFKGSGSGTDFTLTISGVQSDDAATYYCQSYYGASGSGSNVFGGGTEVVVK
notes: V regions on human Ig constant parts; also called AB27_9
B10: P018.S.03.A.C04 (antibody, V domains shown)
VH: QSVEESGGRLVTPGTPLTLTCTVSGVDLSRYAMSWVRQAPGEGLEWIGTIWYSGTTYYASWAKGRFTISKTSSTTVDLKMTSLTAADTATYFCARDPLYVGGNSGSDLWGPGTLVTVSS
VL: DVVMTQTPASVSAAVGGTVTINCQASQSIGSSLAWYQQKPGQRPKLLIYYASTLASGVPSRFSGSGSGTEFTLTISDLESADAATYYCQSNYGAASSSYGAFGGGTEVVVK
notes: V regions on human Ig constant parts; also called AB27_45
B11: P018.S.09.A.E05 (antibody, V domains shown)
VH: QSLEESGGRLVTPGTPLTLTCTVSGIDLSRYDMSWVRQAPGKGLEWIGFIGASGSTYYASWVKGRFTISKTSTTVDLKITSPTTEDTATYFCAREETDSRGYYYSLWGPGTPVTVSS
VL: ALVMTQTPASVEAAVGGTVTINCQASQSISDLLGWYQQKPGQPPKLLIYDASDLASGVPSRFSGSGSGTEFTLTISGVQSDDAATYYCQQGYSINNVDNAFGGGTEVVVK
notes: V regions on human Ig constant parts; also called AB27_155
B12: P018.S.03.A.D06 (antibody, V domains shown)
VH: QSLEESGGRLVTPGTPLTLTCTASGFSLSSYWMSWVRQAPGKGLEWIGYIYAGSGSAYYASWVKGRFTISKTSTTVDLKISSPTTEDTATYFCGRGNYDGYINVYDLWGPGTLVTVSS
VL: DVVMTQTPSSVEAAVGGTVTIKCQASQSIGSYLAWYQKKPGQPPKLLIYAAANLAAGVPSRFKGSGSGTDFTLTINDLESADAATYYCQNNNGAYGSAYVGAFGGGTEVVVK
notes: V regions on human Ig constant parts; also called AB27_51
B13: P018.S.08.A.A03 (antibody, V domains shown)
VH: QSLEESGGRLVTPGTPLTLTCTASGFSLSSYGMIWVRQAPGKGLEWIGMIIDVTYTYYASWAKGRFTISKTSTTVDLKMTSLTTEDTATYFCARTPGYGIYAYGNLWGQGTLVTVSS
VL: AQVLTQTPSPVSAAVGGTVTISCQSSQSVYGNNWLAWYQQKPGQPPKLLIYYASTLASGVPSRFKGSGSGTQFTLTISEVQSDDAATYYCQGYYSSAAYVFGGGTEVVVK
notes: V regions on human Ig constant parts; also called AB27_136
B14: P018.S.06.A.A02 (antibody, V domains shown)
VH: QEQLVESGGGLVQPEGSLTLTCTSSGFSLNSNYYISWVRQAPGKGLEWIACIDAGSGSTWYASWVKGRFTISKTSSTTVTLQMTSLTAADTATYFCARDDIGTSYEYYFGLWGPGTLVTVSS
VL: DVVLTQTPASVSEPVGGTVTIKCQASQTISSYLAWYQQKSGQPPKLLIYSASTLASGVSSRFKGSGSGTEYTLTISDLESADAATYYCQTYYGSDSYVFGGGTEVVVK
notes: V regions on human Ig constant parts; also called AB27_95
B15: P018.S.07.A.E05 (antibody, V domains shown)
VH: QSLEESGGRLVTPGGSLTLTCTVSGIDLSSYAMIWVRQAPGKGLEWIGYIYGGSGSTWYASWAKGRFTISKTSSTTVDLKMTSLTTEDTATYFCARAYDSGYIGNSFYIFDPWGPGTLVTVSS
VL: DIVMTQTPASVSATVGGTVTIKCQASQSISSRLAWYQQKPGQPPKLLIYSASTLASGVSSRFRGSGSGTEFTLTISDLESADGATYYCAGYGGLGITAFGGGTEVVVK
notes: V regions on human Ig constant parts; also called AB27_126

Columns and labels:
[1] = biological target: T1, CD27 expressed on the cell surface (HT1080_CD27 cells) (human, UniProt P26842 20-260); test: cell-based or functional assay
T1 sequence (looked up): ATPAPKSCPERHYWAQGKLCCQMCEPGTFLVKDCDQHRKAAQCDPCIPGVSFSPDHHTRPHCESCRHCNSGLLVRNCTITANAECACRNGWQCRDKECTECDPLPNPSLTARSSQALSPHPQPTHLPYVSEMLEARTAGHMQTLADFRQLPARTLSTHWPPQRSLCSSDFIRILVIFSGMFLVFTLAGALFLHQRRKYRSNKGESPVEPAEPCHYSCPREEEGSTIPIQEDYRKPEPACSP

[2] = biological target: T1, CD27 expressed on the cell surface …; test: cellular binding assay, HT1080_CD27 cells
[3] = biological target: T2, CD27 protein (His-tagged, Sino Biological Inc. 10039-H08B1) (human, UniProt P26842 20-192); test: ELISA on coated His-tagged CD27
T2 construct: bought; coated onto ELISA plates; also called human CD27; recombinant protein; not shown: His tag
T2 sequence (looked up): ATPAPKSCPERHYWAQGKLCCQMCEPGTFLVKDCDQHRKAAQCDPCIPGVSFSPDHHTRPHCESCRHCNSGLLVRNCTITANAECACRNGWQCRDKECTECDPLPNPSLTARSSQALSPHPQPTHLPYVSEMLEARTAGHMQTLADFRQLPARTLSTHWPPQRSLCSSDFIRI
Note: test concentration or dose not given here.

| Binder | IL-8, cross-linked by F(ab')2 fragment [abs. corr.] [1] [abs. corr.] | IL-8 [abs. corr.] [1] [abs. corr.] | Cellular binding assay [RFU] [2] [RFU] | ELISA [abs. corr.] [3] [abs. corr.] |
| --- | --- | --- | --- | --- |
| B1 | 1.56 | 0.079 | 360 | 3.21 |
| B2 | 1.67 | 0.205 | 196 | 3.19 |
| B3 | 1.74 | 0.274 | 177 | 3.16 |
| B4 | 1.33 | 0.209 | 420 | 3.22 |
| B5 | 1.61 | 0.519 | 283 | 3.23 |
| B6 | 1.58 | 0.546 | 292 | 3.21 |
| B7 | 1.62 | 0.4 | 350 | 3.23 |
| B8 | 1.05 | 0.281 | 320 | 3.22 |
| B9 | 1.4 | 0.327 | 349 | 3.19 |
| B10 | 1.48 | 0.394 | 337 | 3.52 |
| B11 | 2.17 | 0.872 | 353 | 3.52 |
| B12 | 1.05 | 0.245 | 360 | 3.19 |
| B13 | 1.64 | 0.276 | 342 | 3.21 |
| B14 | 1.81 | 0.737 | 366 | 3.23 |
| B15 | 1.15 | 0.055 | 317 | 3.2 |
